Reference: the nanobody polyreactivity screen of Harvey et al. (2022)

Test: yeast display, Sf9 membrane polyspecificity reagent, FACS + sequencing; frameworks hold sequencing errors
Procedure, shortened: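 A nanobody's polyreactivity label depends on the gate it was sorted from. Yeast display cells were stained with 10% biotinylated, detergent-solubilized Sf9 membrane reagent for 1 hour at 4 °C, enriched on streptavidin microbeads and sorted by FACS. The low and high (top ~1%) gates were set on anti-HA fluorescence for expression and streptavidin fluorescence for reagent binding.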

Sequence | polyreactivity (PSR sort gate)
QVQLVESGGGLVQAGGSLRLSCAASGFTFVTNAMGWYRQAPGKERELVAAISRRGGSTYYADSVKGRFTISRDNAKNTVDLQMNSLKPEDTPVYYCNADRQRRRQFSFSSPYDYWGQGTQVTVSS | high polyreactivity
QVQLVESGGGLVQAGGSLRLSCAASGFTFVVYTMGWYRQAPGKEREFVAVISESGGSTYYADSVKGRFTISRDNAKNTVYLQMNSLKPEDTAVYYCAARTRYYRDNYWGQVTQVTVSS | high polyreactivity
QVQLVESGGGLVQAGGSLRLSCAASGFTFVWNARGWYRQAPGKERELVAVISYSGGSTYYADSVKGRFTISRDNAKNTVYLQMNSLKPEETAVDYCAAEFVTYYSSSKRAYYYWGQGTLVTVSS | high polyreactivity
QVQLVESGGGLVQAGGSLRLSCAASGFTFVWYAMGWYRQAPGKERELVAAISRRGTRTYYADSVKGRFTISRDNAKNTVYLQMNSLKPEDTAVYYCAASPWGGYGYWGQGTQVTLSS | high polyreactivity
QVQLVESGGGLVQAGGSLRLSCAASGFTFVYYAMGWYRQAPGKEREFVAAISLSGGSTYYADSVKGRFTISRDNAKNTVYLQMNSLKPEDTAVYYCATDWSLRIERDYGYWGQGTQVTVSS | low polyreactivity
QVQLVESGGGLVQAGGSLRLSCAASGFTFVYYAMGWYRQAPGKERELVAAIRSGGSTNYADSVKGRFTISRDNAKNTVYLQMNSLKPEDTAVYYCAAAYWKGRLVRYYYWGQGTQVTVSS | high polyreactivity
QVQLVESGGGLVQAGGSLRLSCAASGFTFVYYAMGWYRQAPGKERELVAAISGRGGSTYYADSVKGRFTISRDNAKNTVYLQMNSLKPEDTAVYYCATTYSWYYVPDKTHIYYYWGQGTQVTVSS | low polyreactivity
QVQLVESGGGLVQAGGSLRLSCAASGFTFVYYAMGWYRQAPGKERELVAAISTRGGSTYYADSVKGRFTISRDNAKNTVYLQMTSLKPEDTAVYYCAARSYPPGLRFDYWGQGTQVTVSS | high polyreactivity
QVQLVESGGGLVQAGGSLRLSCAASGFTFVYYAMGWYRQEPGKERELVAAISRSGGSTYYADSVKGRFTISRDNAKNTVYLQMNSLKPEDTEVYYCAAVTYANYYYDAYYYWGQGTQVTVSS | high polyreactivity
QVQLVESGGGLVQAGGSLRLSCAASGFTFVYYVMGRYRPAPGKERDLVAAINAGGGSTYYADSVKGRFTISRDNAKNTVYLQMNSLKPEDTSVYYCAARYHTSTRPCRNYWGQGTQVTVSS | high polyreactivity
QVQLVESGGGLVQAGGSLRLSCAASGFTFWAYTMGWYRQAPGKERELVAAITRSGGRTYYADSVKGRFTISRDNAKNTVYLQLNSLKPEDTAVYYCAAKIWSKDEKHDYWGQGTQVTGSS | high polyreactivity
QVQLVESGGGLVQAGGSLRLSCAASGFTFWEYALGWYRQAPGKERELVAAISRGTSTYYADSVKGRFTIPRDNAKNTVYLQMNSLKPEDTAVYYCAARQDPPLGYDYWGQGTQVTVSS | low polyreactivity
QVQLVESGGGLVQAGGSLRLSCAASGFTFWEYAMGWYRQAPGKERELVAAISSRGTRTYYADSVKGRFTISRDNAKNTVYLQMNSLKPEDTAVYYCATAIPDPDYIHNYWGQGTQVTVSS | high polyreactivity
QVQLVESGGGLVQAGGSLRLSCAASGFTFWKYAMGWYRQAPGKERELVAAISWSGGNTYYADSVKGRFTISRDNAKNTVYLQMNSLKPEDTAVYYCAAVYTPQNQFRYKYYYWGQGTQVTVSS | high polyreactivity
QVQLVESGGGLVQAGGSLRLSCAASGFTFWLYAMGWYRQAPGKEREFVAAISTSGGSTYADSVKGRFTISRDNAKNTVYLQMNSLKPEDTAVYYCNADPTTTTYRHQYNYWGQGTQVTVSS | low polyreactivity
QVQLVESGGGLVQAGGSLRLSCAASGFTFWRYALGWYRQAPGKETEFVASITWSGGSTYYADSVKGRFTISRDNAKNTVYLQMNRLQPEDTAVYYCAAVARTSGIKYYYWGQGTQVTVSS | high polyreactivity

Sequence | polyreactivity (PSR sort gate)
QVQLVESGGGLVQAGGSLRLSCAASGFTFWRYAMGWSRQATGKERELVAVITWSGTRTYYADSVKGRFTISRDNAKNTVYLQMNSLKPEDTAVYYCAAYITDVAGRAYDYWGQGTQVTVSS | high polyreactivity
QVQLVESGGGLVQAGGSLRLSCAASGFTFWRYAMGWYRQAPGKERELVAAINWSGGSTNYADSVKGRFTISRDNAKNTVYLQMNSLKPEDTAVYYCAVDPYQNDPSRWYTYPRRGNYWGQGTQVTVSS | high polyreactivity
QVQLVESGGGLVQAGGSLRLSCAASGFTFWSYAMGWYRPAPGKERELVAAISRGGSTSYADSVKGRFTISRDNAKNTVYLLMNSLKPEDTAVYYCAALRPYRNDKGDYWGQGTQVTVSS | high polyreactivity
QVQLVESGGGLVQAGGSLRLSCAASGFTFWSYAMGWYRQAPGKERELVAGITIDGNTYYADSVKGRFTISRDNAKNTVYLQMNSLKPEDTAVYYCAAVAYYYGYDYWGQGTQVTVSS | low polyreactivity
QVQLVESGGGLVQAGGSLRLSCAASGFTFWSYTMGRYRQPHGKETELVADISWSGGSTYYADSVKGRFTISRDNAKNTVYLQMNSLKPEDTAVLYCNADGPFWARRSSRYYWGQGTQVTVSS | high polyreactivity
QVQLVESGGGLVQAGGSLRLSCAASGFTFWTYAMGWYRQAPGKERELVATISKRGGSTYYADSVKGRFTISRDNAMNTVYLQMNSLKPEVTAVYYCNRPSYGKEMDYWGQGTQVTVSS | high polyreactivity
QVQLVESGGGLVQAGGSLRLSCAASGFTFWTYARGWYRQAPGKERELVAAIDSGGSTYYADSVKGRFTISRDNAKNTVYLQMNSLKPEDTAVYYCNAGPSVTSGYDYDYWGQGTQVTVSS | low polyreactivity
QVQLVESGGGLVQAGGSLRLSCAASGFTFWWYAMGWYRQAPGKERELVASIDTRGGTYYADSVKGRFTISRDNAKNTVYLQMNRLKPEDTAVYYCNADGAYGNYRGGYWGQGTQVTVSS | high polyreactivity
QVQLVESGGGLVQAGGSLRLSCAASGFTFWYYAMGWYRQAPGKERELVAAITSGGTTYYADSVKGRFTISRDNAKNTVYLQMNSLKPEDTAVYYCAALLSIYRSQYDYWGQGTQVTVSS | high polyreactivity
QVQLVESGGGLVQAGGSLRLSCAASGFTFWYYAMGWYRQAPGKERELVATISRGGGSTYYADSVKGRFTISRDNAKNTVYLQMNSLKPEDTEVYYCNAVRVHAYSTGEYGYWGQGTQVTVSS | high polyreactivity
QVQLVESGGGLVQAGGSLRLSCAASGFTFWYYAMGWYRQAPGKERELVATITSGDSTKYADSVKGSFTISRDNAKNTVFLQMNSLNPEDNAVYYCAAEKVLPFIGYDYWGQGTQVTVSS | low polyreactivity
QVQLVESGGGLVQAGGSLRLSCAASGFTFYANTMGWYRQAPGKERELVAAISKSGGRTYYADSVKGRFTISRDNAKNTVYLQMNSLKPEDTAVYYCAASSGYKRNYWGQGTQVTVSS | high polyreactivity
QVQLVESGGGLVQAGGSLRLSCAASGFTFYAYAMGWYRQAPGKERELVAAISGRGTSTYYADSVKGRFTISRDNAKNTVYLQMNSLKPEDTAFYYCIKYPLRLYGYDYWGQGTQVTVSS | high polyreactivity
QVQLVESGGGLVQAGGSLRLSCAASGFTFYDYAMGWYRQAPGKQREFVAAITWSGSSTYYADSVKGRFTISRDNAMNTVYLQMKSMKPEDTEVYYCAVGPFRRRGHYPTYYRYGYWGQGTEVTVSS | high polyreactivity
QVQLVESGGGLVQAGGSLRLSCAASGFTFYDYDMGWSRQAPGKERELVATITWSGGRTYYADSVKGRFTISRDNAKNTVYLQMNSLKPEDTAVYYCAADEPDRDYGYWGQGTQVTVSS | low polyreactivity
